Measured values from the supplement of paper PMC12042874.
± gives the uncertainty stated by the source.

Assay: amyloid nucleation score (Sup35N fusion, yeast selection) (log enrichment); library NNK2; higher = more nucleation; inactive = no reads after selection
In short: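 On medium lacking adenine and uracil, psi-negative yeast expressing peptides of 20 random codons fused to Sup35N were grown 7 days at 30°C after a 24-hour induction with 100 μM copper sulfate. Illumina sequencing of input and output plasmid inserts gave the reads, and sequences under 100 input reads were excluded. The nucleation score is the DiMSum log enrichment of output over input reads, centred on the mode score of non-aggregating sequences.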

| Substance | amyloid nucleation score |
| --- | --- |
| NVITRGM | 0.899 ± 0.38 |
| MVEHLCNNHSRFLYSAWGIE | -0.641 ± 0.56 |
| TVFFF | 2.6 ± 0.11 |
| SEWEYPNINE | inactive |
| YCVSNWASNFSLLLYNGNMY | inactive |
| FVEMLYLGDVGDCHILQCVY | inactive |
| DLGGMP | -0.501 ± 0.48 |
| HYHTSISYR | 4.77 ± 0.1 |
| MKGALWYSDKAT | 0.102 ± 1.1 |
| KDAPKFIYFSQLTTKCITRY | 4.14 ± 0.044 |
| RANFSGTKLLVNTECLWLSV | 2.35 ± 0.17 |
| FCAMGGPSRGLVNRWFGS | -0.746 ± 0.41 |
| RVYNITILYRCLKRRLS | 0.878 ± 0.57 |
| NYCRTIFYYCAMIYFPCLAE | 1.77 ± 0.22 |
| VKHTFLRKFWMHRSIESYGH | -0.111 ± 0.38 |
| GNGMNWPC | 2.16 ± 0.13 |
| IVFYFVFRILSYGGSTIPVG | -1.15 ± 0.64 |
| CMFEFHGVAVGLMRVFHRLW | 5.23 ± 0.062 |
| GVDKWLDHVCFVASYLSVKV | 1.22 ± 0.51 |
| KLTFSCGGLGGNLYVWL | 7.999 ± 0.042 |
| WGMWCMFHCRVAS | -0.196 ± 1 |
| DYNFIQRNNCGALCKYAKTL | -1.55 ± 0.62 |
| MNELVIIGILMCCTDF | 8.484 ± 0.027 |
| MFCSEMLVYGLMMVLSF | -0.05 ± 0.3 |
| LCSTG | 0.815 ± 0.53 |

| Substance | amyloid nucleation score |
| --- | --- |
| NRAVGLLRYTMVMGT | 0.026 ± 1.1 |
| GVSVSVYHGWLVLDRMFHNS | 4.25 ± 0.12 |
| VSTRILSCSNEFCYIIGAMV | 2.59 ± 0.15 |
| RDQFTISETRNAVDMDWKSK | 0.007 ± 1.1 |
| RWFIDYHGSVFCFQKYIPPV | -0.526 ± 0.54 |
| LKIFLLIVVGDDFMKSKYCP | -0.612 ± 0.64 |
| IGSWSTA | 0.367 ± 0.36 |
| NYFGKLLWLSLHDTCIVTF | inactive |
| SCIYLGVLRKVCMRFIMVIV | -1.03 ± 0.63 |
| AEWISLQQFLSLQKEFWIKA | -0.596 ± 0.76 |
| VLVNKGLTMHFACSYV | 0.547 ± 0.81 |
| IFSTFCFLSAILFSIFPYEP | inactive |
| NWLSMWLWFVCMSLVCMVFR | 1.77 ± 0.16 |
| LRFVVMVHLE | -0.072 ± 0.79 |
| IHNWIDSVERTALDMWERNA | 1.98 ± 0.14 |
| IDYQKMLVSDCGD | 0.363 ± 0.46 |
| SRMFVFNVGVIEFWKLGGYN | -0.716 ± 0.64 |
| NIIFLGVGSVFKNWRTTILS | 4.02 ± 0.049 |
| YSSMGDNSRVRSFFVAVAGG | inactive |
| HGGGVLHIFLNIAPLVS | 1.52 ± 0.28 |
| MYPRPVYNIKLFLKEVWGQY | 6.933 ± 0.046 |
| YGVDLSRRMV | 0.043 ± 0.46 |
| WERVKYLLDYL | inactive |
| MDQNG | -0.427 ± 0.79 |
| AFFKR | 0.182 ± 0.38 |

| Substance | amyloid nucleation score |
| --- | --- |
| ISVHSQNTYVILELVRPSML | 8.388 ± 0.04 |
| CSPCFLSCGPYNNGPE | 7.537 ± 0.074 |
| LVSESTLINSFLQIWFWSTL | -0.324 ± 1.1 |
| MFYASFGVKL | 0.655 ± 0.65 |
| LMSNINVSIYIFG | 7.782 ± 0.063 |
| SSSEFDPSSGSCLYT | -0.847 ± 0.34 |
| FICPMYESSRIVV | 0.335 ± 0.64 |
| LMYGKEWSMEQIVGTSTFGY | -1.36 ± 0.48 |
| LNPIFVWFHSC | 7.23 ± 0.077 |
| RRYKVDYTPSCIESPGVVLA | -1.19 ± 0.78 |
| YYMLVYWDV | 0.56 ± 0.44 |
| SRGLSGNSSASLEKLNRL | 0.072 ± 0.63 |
| SALSLICDRWFDCFLRGTQY | 3.66 ± 0.15 |
| TSLFI | 0.487 ± 0.6 |
| MIIVTAY | -0.073 ± 0.49 |
| KYFRICRVYLNTLLPLVTLV | inactive |
| NRTCVLSNPFPFPHNIPGVC | -0.815 ± 0.54 |
| CNVDYLSDVYYHVPMQDQSL | 0.368 ± 0.48 |
| PKGNSRYMRLIFDAQLSYTG | 1.25 ± 0.13 |
| AHNDVNGVFLMPVRSLDFKH | -1.17 ± 0.64 |
| CKYFLLVFIVVNYFGLGPMP | inactive |
| SKTMSKMNKDQLQHSMLHDP | -0.453 ± 0.45 |
| FCRETLRTRKAETLGTVNKE | -0.937 ± 0.78 |
| RKVTAVHLRHPP | 2.2 ± 0.15 |
| LVSTEIN | 3.75 ± 0.052 |

| Substance | amyloid nucleation score |
| --- | --- |
| FRTASLHVCLFLSG | -0.316 ± 0.61 |
| GLTLMSR | 1.06 ± 0.12 |
| SLLRLIFMLRRGDIHGYCRG | 5.84 ± 0.084 |
| HYGVNESLIKRYNWLRGVIW | 0.227 ± 1.1 |
| CLCCKLVYASNIEIGDYMGF | 6.216 ± 0.034 |
| FILRHQFCLRTLIYGPSIFF | 7.465 ± 0.045 |
| GFPRMTIHVKFHGQFSCFII | 0.615 ± 0.5 |
| LAFPCFRVSGYESYGFVRKL | 0.436 ± 0.31 |
| VCVGYFCC | 5.789 ± 0.024 |
| MFLSNDIAFVKNVLNRIRYL | -0.642 ± 0.78 |
| LVPSY | 0.457 ± 0.18 |
| SWKWYRS | 0.157 ± 1 |
| MSLHPMRLHQWRPESIVLTE | 0.365 ± 0.66 |
| LSSGEYVSSGMRGTSCEKSK | -0.007 ± 0.79 |
| SMRFVLAF | -1.92 ± 0.77 |
| GLGYSLICNLTSICGKNNV | -0.147 ± 1.1 |
| FACLYKTMQQLMGIKMCVKA | 0.277 ± 0.4 |
| DNCLTGIEWI | -1.83 ± 1 |
| SHDAYGIYRLQ | 0.696 ± 0.38 |
| FVDDLARGLLVKRECSWQMQ | 0.523 ± 0.33 |
| CTSYTEDFLWCFHNVTWKVR | 0.105 ± 0.8 |
| HPKAYARVTTK | -0.068 ± 0.36 |
| IIAEFDSGWSEAFDSCLGMS | -0.114 ± 0.54 |
| MTFDNDVCVSI | inactive |
| CEISFVFIWILIVFNNVDPD | inactive |

| Substance | amyloid nucleation score |
| --- | --- |
| CDILPDLPGRFALVRKASHN | 1.11 ± 0.45 |
| RKQNTVQWSNHFLHCKMPST | inactive |
| NFFPCACNNGAPIKEDFTCR | 2.84 ± 0.17 |
| SEWSQKRGLVYTVQEFQKLY | inactive |
| SSGFPE | -0.846 ± 0.42 |
| CRFALSMYNWVLYNRNFQLI | -0.363 ± 1.1 |
| AEYSSAKGFD | -0.794 ± 0.55 |
| ASCNKGPEKSGQLFLLSAFL | -0.641 ± 0.49 |
| HKMADSTNDSNRLEFDMFNE | -0.881 ± 0.78 |
| ARYMSQVRRTSSHTLNEKI | 0.545 ± 0.51 |
| CCNMTHYDFSGYNDGAMQDC | -0.424 ± 0.76 |
| NVQALMN | 0.012 ± 0.74 |
| CSYVDRTLGSNLWVVRSNSQ | 0.737 ± 0.51 |
| YRACCVYNLGEVEWGVWVVC | -0.31 ± 0.21 |
| GRGAAILYMECYAVAEVCTF | 0.108 ± 0.26 |
| MLRCQFTSTGFGNRLATFSD | 3.02 ± 0.15 |
| PTRKSIYSLPRARSLIPQNT | -1.26 ± 1.1 |
| KLFCTKVNIRRTSYSVTSIY | inactive |
| LCVSAVLKLVGNLWDDEREC | -0.091 ± 0.79 |
| IAFKLRSTLSQPRNTCVLWH | 0.276 ± 1 |
| WDLLLCNTKFFEIRIKADTL | 3.94 ± 0.094 |
| CRHMSDHWKSSR | -0.562 ± 0.54 |
| YIDALSIVFCVAVIGHTPTW | 8.753 ± 0.039 |
| ITCTFFFSVSVLSTSVDSMY | 0.674 ± 0.57 |
| WWTAQGCTELTVS | 0.855 ± 0.27 |

| Substance | amyloid nucleation score |
| --- | --- |
| LFGYGQEDGQWCGDEFETVK | 0.769 ± 0.26 |
| LRSLIYRCVLQWNTAKFLRS | -0.716 ± 1.1 |
| HEMRDGNSRLMFYWGVSCNM | 0.062 ± 0.45 |
| NLMWTLNLF | 8.253 ± 0.058 |
| SSLCGNCLGVEVVEQVISCR | -0.12 ± 0.23 |
| QLSFPSVTDLNRLAIIMLRV | 1.13 ± 0.4 |
| EYGVAT | 1.17 ± 0.18 |
| RSDMCSAMIFWSELVKWQDG | 3.84 ± 0.091 |
| YLFFKFWNAVCDLIHNTNLY | inactive |
| ITWGFNVFMFVVPSWS | 8.67 ± 0.035 |
| RSITGCDWFLH | 0.063 ± 1.1 |
| RLLDFCQFPVTS | 3.7 ± 0.063 |
| SFGNYRSVWYVTDVFAHIHL | 8.335 ± 0.056 |
| YSNRLYFVLEAVVYL | 1.41 ± 0.32 |
| LSLYWVMSLKSQAP | 0.354 ± 0.64 |
| YGFVDSHRTH | 0.092 ± 0.61 |
| NTEFIFQELRVMSHEVCIHI | inactive |
| VVLYCFISLLKFIEIGEGHP | -1.24 ± 1.1 |
| LANFGIIVWCCTCFYDD | 8.268 ± 0.039 |
| IPVDT | -0.668 ± 1.1 |
| TLMKVRVYSSYGKVHVGSLA | 5.03 ± 0.08 |
| RSNSMMLCFASDIVRFYHMG | 2.71 ± 0.14 |
| SNSQMKAAMVGCNLRGMEQA | 0.689 ± 0.57 |
| KSVYLSIGDILAFFSIVLLY | inactive |
| SAVWRHVNDLLLSR | 1.11 ± 0.4 |

| Substance | amyloid nucleation score |
| --- | --- |
| IFAHSPLYMCGYADVYVHPT | inactive |
| DFGYYREIHDEEECSCLKVY | -0.981 ± 0.78 |
| FMRGLMARLCER | 0.293 ± 0.4 |
| DDSNCNNHGRVDDKVR | 4.9 ± 0.038 |
| AGWNNSMGLDE | inactive |
| ISLRMKEHVICSLVPFMSQI | 0.664 ± 0.22 |
| TGALVNM | 0.13 ± 1.1 |
| VMMNSCNCRSYTLYLL | 9.183 ± 0.075 |
| LVNKG | 3.15 ± 0.064 |
| SCAVSIVTGRGVHSFVKAWF | 0.547 ± 0.17 |
| CMESRCFEL | 0.438 ± 0.56 |
| RLEPYCILSRV | -1.75 ± 0.48 |
| SEANKSGVSVGWCDCAVGCV | 0.734 ± 0.21 |
| SFSVVGNHHVCMDYDMVLNG | 0.315 ± 0.32 |
| NCFVLVRALTYCLGNSR | 5.18 ± 0.1 |
| KVLCWLRVRYLKGLGQGSAC | 0.358 ± 0.31 |
| YLHLSQTQWLGLIFNRRSFD | 3.62 ± 0.068 |
| YRILVNFAVVSMVRINRSFW | -1.48 ± 0.78 |
| GYTIDWMGVLQSVVLCT | 0.524 ± 0.6 |
| DVRPDLNDKSRTVDSDVLLC | -0.846 ± 0.78 |
| TWNGVWLGDFACFSWYMGPL | 0.094 ± 0.36 |
| YHVVAWSWTRSYV | 0.561 ± 0.4 |
